In PMC11109957:

Target: OGG1 (UniProt O15527)
Assay: co-IP, Western blot
Details: reference: wild type, KBrO3; sites S46,S53

SIRT2 (from UniProt Q8IXJ6) S46AS53A, KBrO3
binding against the reference: weaker
